Substitutions are numbered along the chain they refer to.

By Kd is commonly meant the constant that tells how readily two partners part at equilibrium.

The labels stand for the following.
B1: M103205H795-MY117/M103202L889-SK1 (antibody, human IgG1, kappa)
heavy: QVTLKESGPVLVKPTETLTLTCTVSGIDLSHDDISWVRQAPGKGLEWVGIISYAGSTYYASWAKGRLTISKDTSKNQVVLTMTNMDPVDTATYYCARGVPAYSHGGDLWGQGTLVTVSSASTKGPSVFPLAPSSKSTSGGTAALGCLVKDYFPEPVTVSWNSGALTSGVHTFPAVLQSSGLYSLSSVVTVPSSSLGTQTYICNVNHKPSNTKVDKKVEPKSCDKTHTCPPCPAPEWLNGPSVFLFPPKPKDTLMISRTPEVTCVVVDVAEEDPEVKFNWYVDGVEVHNAKTKPREEQYNSTYRVVSVLTVLHQDWLNGKEYKCKVSNKALPAPIEKTISKAKGQPREPQVYTLPPSREEMTKNQVSLTCLVKGFYPSDIAVEWESNGQPENNYKTTPMVLDSDGSFFLYSKLTVDKSRWQQGNVFSCSVMHEALHNHYTQKSLSLSP
light: DIVMTQSPATLSLSPGERATLSCTSSQSVYHANWLSWFQQKPGQPPKLLIYWASTLAYGVPSRFSGSGSGTDFTLTISSLQPEDAATYYCAGGYGGGRYAFGQGTKVEIKRTVAAPSVFIFPPSDEQLKSGTASVVCLLNNFYPREAKVQWKVDNALQSGNSQESVTEQDSKDSTYSLSSTLTLSKADYEKHKVYACEVTHQGLSSPVTKSFNRGEC
notes: Substitutions introduced into M103205H795-SG1; expressed with M103202L889-SK1 as light chain
B2: M103205H795-MY141/M103202L889-SK1 (antibody, human IgG1, kappa)
heavy: B1 heavy with W236L, E270H
light: B1 light
notes: as for B1
B3: M103205H795-MY147/M103202L889-SK1 (antibody, human IgG1, kappa)
heavy: B1 heavy with W236L, L237W, A269S
light: B1 light
notes: as for B1
B4: M103205H795-MY197/M103202L889-SK1 (antibody, human IgG1, kappa)
heavy: B1 heavy with W236L, A269S, E270D, A332K
light: B1 light
notes: as for B1

In the first assay the target is T1, human FcγRIIaH extracellular domain, C-terminal His-tag (human, UniProt P12318 34-217).
T1 construct: also called human FcγRIIa (type H); FcgRIIaH
T1 sequence: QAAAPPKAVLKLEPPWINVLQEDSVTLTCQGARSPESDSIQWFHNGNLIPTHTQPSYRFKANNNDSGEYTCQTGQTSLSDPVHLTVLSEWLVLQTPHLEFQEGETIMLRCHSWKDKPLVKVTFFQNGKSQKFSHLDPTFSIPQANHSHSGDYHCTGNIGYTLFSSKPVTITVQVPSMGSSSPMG
Put plainly: SPR (Biacore); KD of SG1 / KD of variant.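 Also: relative to parent M103205H795-SG1 carrying the SG1 human heavy chain constant region.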
As for B1, the “KD fold (SG1 = 1)” value came to 0.8 fold.

In the case of B2, the “KD fold (SG1 = 1)” value stood at 0.8 fold.

Regarding B3, the “KD fold (SG1 = 1)” value was found to be 0.6 fold.

For the molecule B4, the “KD fold (SG1 = 1)” value turned out to be 1.9 fold.

A further assay deals with T2, cynomolgus monkey FcγRIIa1 extracellular domain, C-terminal His-tag (cynomolgus monkey).
T2 construct: also called cyno FcγRIIa1; cynoFcgRIIa1
T2 chain: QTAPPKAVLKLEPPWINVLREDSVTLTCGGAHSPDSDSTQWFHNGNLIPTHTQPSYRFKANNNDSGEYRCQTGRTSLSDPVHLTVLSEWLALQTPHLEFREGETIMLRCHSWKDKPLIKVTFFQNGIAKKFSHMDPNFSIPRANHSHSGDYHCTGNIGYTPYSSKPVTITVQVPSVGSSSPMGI
Briefly: SPR (Biacore), antibody captured, FcgR analyte. A general note: SPR reads the build-up and loss of mass on a sensor chip optically.
As to B1, the affinity, expressed as Kd, was 2600 nM.

Take B2: the Kd turned out to be 22000 nM.

Consider B3, for which the Kd is 2200 nM.

In turn, B4 yielded a Kd of 580 nM.

In a further assay the target is T3, cynomolgus monkey FcγRIIa2 extracellular domain, C-terminal His-tag (cynomolgus monkey).
T3 construct: also called cyno FcγRIIa2; cynoFcgRIIa2
T3 chain: T2 chain with P95T, T121A, I127K, A128S, K130N, D135N, R142Q
Put plainly: SPR (Biacore), antibody captured, FcgR analyte.
B1 came in with a Kd of 3200 nM.

In turn, B2 registered a Kd of 2800 nM.

Turning to B3, the Kd was 2200 nM.

B4: the affinity, expressed as Kd, was 560 nM.

For another assay, the target named is T4, cynomolgus monkey FcγRIIa3 extracellular domain, C-terminal His-tag (cynomolgus monkey).
T4 construct: also called cyno FcγRIIa3; cynoFcgRIIa3
T4 chain: T2 chain with P95T, T121A, A128S, H133P, D135N
Briefly: SPR (Biacore), antibody captured, FcgR analyte.
Molecule B1 registered a Kd of 9900 nM.

Turning to B2, the Kd worked out at 20000 nM.

The molecule B3 gave a Kd of 6600 nM.

B4 registered a Kd of 14000 nM.

Another assay has as its target T5, cynomolgus monkey FcγRIIb extracellular domain, C-terminal His-tag (cynomolgus monkey).
T5 construct: also called cyno FcγRIIb; cynoFcγRIIb
T5 chain: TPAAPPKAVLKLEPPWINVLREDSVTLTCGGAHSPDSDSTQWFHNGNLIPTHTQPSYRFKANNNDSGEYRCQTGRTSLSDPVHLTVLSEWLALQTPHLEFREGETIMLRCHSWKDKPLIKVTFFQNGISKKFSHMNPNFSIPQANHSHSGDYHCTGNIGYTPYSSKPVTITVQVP
Briefly: SPR (Biacore), antibody captured, FcgR analyte.
B1 came in with a Kd of 1000 nM.

Turning to B2, the dissociation constant (Kd) worked out at 1800 nM.

In the case of B3, the Kd stood at 960 nM.

In turn, B4 displayed a Kd of 170 nM.

Another assay deals with T6, cynomolgus monkey FcγRIIIaS extracellular domain, C-terminal His-tag (cynomolgus monkey, UniProt Q8SPW2 21-206 at identity 1.00)).
T6 construct: also called cyno FcγRIIIaS; cynoFcγRIIIaS
T6 chain: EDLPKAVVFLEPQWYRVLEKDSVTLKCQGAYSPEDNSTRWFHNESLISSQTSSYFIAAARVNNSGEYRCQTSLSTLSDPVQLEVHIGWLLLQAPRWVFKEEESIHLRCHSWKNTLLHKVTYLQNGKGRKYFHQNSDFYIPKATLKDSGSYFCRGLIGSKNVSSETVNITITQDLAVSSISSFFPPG
Briefly: SPR (Biacore), antibody captured, FcgR analyte.
Consider B1, for which binding was characterised by a dissociation constant (Kd) of 1000 nM.

In the case of B2, the Kd came out at 47000 nM.

With B3, binding was put at a Kd of 5500 nM.

Molecule B4 gave a Kd of 2100 nM.

For another assay, the target named is T1, human FcγRIIaH extracellular domain, …. Put plainly: SPR (Biacore), antibody captured, FcgR analyte.
The molecule B1 returned a Kd of 2200 nM.

The molecule B2 showed a Kd of 12000 nM.

B3 registered a Kd of 1200 nM.

As for B4, the Kd is 360 nM.

The next assay addresses T7, human FcγRIIaR extracellular domain, C-terminal His-tag (human, UniProt P12318 34-217).
T7 construct: also called human FcγRIIa (type R); FcgRIIaR
T7 chain: T1 sequence with H134R
Put plainly: SPR (Biacore), antibody captured, FcgR analyte.
For the molecule B1, the Kd was 10000 nM.

As for B2, the Kd came to 1600 nM.

Regarding B3, binding was characterised by a dissociation constant (Kd) of 1100 nM.

Consider B4, for which the Kd came out at 710 nM.

A further assay deals with T8, human FcγRIIb extracellular domain, C-terminal His-tag (human, UniProt P31994 43-217).
T8 construct: also called human FcgRIIb; FcgRIIb
T8 sequence: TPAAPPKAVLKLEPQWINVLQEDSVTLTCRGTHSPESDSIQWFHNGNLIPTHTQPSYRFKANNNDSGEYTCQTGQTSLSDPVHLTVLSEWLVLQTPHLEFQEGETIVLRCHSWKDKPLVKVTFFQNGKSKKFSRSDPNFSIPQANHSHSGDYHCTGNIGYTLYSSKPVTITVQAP
Put plainly: SPR (Biacore), antibody captured, FcgR analyte.
As for B1, the Kd was determined as 600 nM.

For B2, binding was put at a Kd of 1100 nM.

The molecule B3 had a Kd of 850 nM.

As for B4, the Kd worked out at 890 nM.

The values above are taken from patent publication US20200317768A1 (published 2020).
